# Measurements published in US20250134956A1 (published 2025).
# T1: Kita-kyushu lung cancer antigen 1 (CT83, KKLC1, CXorf61) peptide on HLA-A*02 (human)
# T1 peptide: KLVELEHTLL
# T2: Kita-kyushu lung cancer antigen 1 (CT83, KKLC1, CXorf61) peptide on HLA-A*02 (human)
# T2 peptide: RILVNLSMV
# Target: T1, Kita-kyushu lung cancer antigen 1 …
# Experiment: binding, other
row,Binder,binding result
1,"TCR of SEQ ID NOs 10 and 11 (TCR, V domains shown) Valpha: KQEVTQIPAALSVPEGENLVLNCSFTDSAIYNLQWFRQDPGKGLTSLLLIQSSQREQTSGRLNASLDKSSGRSTLYIAASQPGDSATYLCAVTTQGGSEKLVFGKGTKLTVNP Vbeta: NAGVTQTPKFQVLKTGQSMTLQCAQDMNHEYMSWYRQDPGMGLRLIHYSVGAGITDQGEVPNGYNVSRSTTEDFPLRLLSAAPSQTSVYFCASSYSDRGYSPLHFGNGTRLTVT",recognises
2,"TCR of SEQ ID NOs 12 and 13 (TCR, V domains shown) Valpha: KQEVTQIPAALSVPEGENLVLNCSFTDSAIYNLQWFRQDPGKGLTSLLLIQSSQREQTSGRLNASLDKSSGRSTLYIAASQPGDSATYLCAVMEDSGYALNFGKGTSLLVTP Vbeta: NAGVTQTPKFQVLKTGQSMTLQCAQDMNHEYMSWYRQDPGMGLRLIHYSVGAGITDKGEVPNGYNVSRLNKREFSLRLESAAPSQTSVYFCASSRTGYYGYTFGSGTRLTVV",recognises
3,"TCR of SEQ ID NOs 14 and 15 (TCR, V domains shown) Valpha: KQEVTQIPAALSVPEGENLVLNCSFTDSAIYNLQWFRQDPGKGLTSLLLIQSSQREQTSGRLNASLDKSSGRSTLYIAASQPGDSATYLCAVGGEETSGSRLTFGEGTQLTVNP Vbeta: NAGVTQTPKFQVLKTGQSMTLQCAQDMNHEYMSWYRQDPGMGLRLIHYSVGAGITDQGEVPNGYNVSRSTTEDFPLRLLSAAPSQTSVYFCASSYSDRGYSPLHFGNGTRLTVT",recognises

# Target: T2, Kita-kyushu lung cancer antigen 1 …
# Experiment: binding, other
row,Binder,binding result
1,"TCR of SEQ ID NOs 16 and 17 (TCR, V domains shown) Valpha: KQEVTQIPAALSVPEGENLVLNCSFTDSAIYNLQWFRQDPGKGLTSLLLIQSSQREQTSGRLNASLDKSSGRSTLYIAASQPGDSATYLCAVSGNTPLVFGKGTRLSVIA Vbeta: NAGVTQTPKFRVLKTGQSMTLLCAQDMNHEYMYWYRQDPGMGLRLIHYSVGEGTTAKGEVPDGYNVSRLKKQNFLLGLESAAPSQTSVYFCASSYVGNTEAFFGQGTRLTVV",recognises
2,"TCR of SEQ ID NOs 18 and 19 (TCR, V domains shown) Valpha: KQEVTQIPAALSVPEGENLVLNCSFTDSAIYNLQWFRQDPGKGLTSLLLIQSSQREQTSGRLNASLDKSSGRSTLYIAASQPGDSATYLCAPSGNTPLVFGKGTRLSVIA Vbeta: NAGVTQTPKFRVLKTGQSMTLLCAQDMNHEYMYWYRQDPGMGLRLIHYSVGEGTTAKGEVPDGYNVSRLKKQNFLLGLESAAPSQTSVYFCASSFLGNTEAFFGQGTRLTVV",recognises
3,"TCR of SEQ ID NOs 20 and 21 (TCR, V domains shown) Valpha: KQEVTQIPAALSVPEGENLVLNCSFTDSAIYNLQWFRQDPGKGLTSLLLIQSSQREQTSGRLNASLDKSSGRSTLYIAASQPGDSATYLCAVNELGRLYFGRGTQLTVWP Vbeta: NAGVTQTPKFQVLKTGQSMTLQCAQDMNHEYMSWYRQDPGMGLRLIHYSVGAGITDQGEVPNGYNVSRSTTEDFPLRLLSAAPSQTSVYFCASSYSGGYTFGSGTRLTVV",recognises
